Experimental findings from US20260159601A1 are described below.

This test addresses human CD20 (human) (UniProt P11836). Description: flow cytometry on a human B-cell lymphoma cell line, 30 min at 4 C, detection with FITC-labeled F(ab)'2 goat anti-human Fc-gamma-specific antibody, median fluorescence intensity.

human CD20 (human), sequence (P11836 whole entry): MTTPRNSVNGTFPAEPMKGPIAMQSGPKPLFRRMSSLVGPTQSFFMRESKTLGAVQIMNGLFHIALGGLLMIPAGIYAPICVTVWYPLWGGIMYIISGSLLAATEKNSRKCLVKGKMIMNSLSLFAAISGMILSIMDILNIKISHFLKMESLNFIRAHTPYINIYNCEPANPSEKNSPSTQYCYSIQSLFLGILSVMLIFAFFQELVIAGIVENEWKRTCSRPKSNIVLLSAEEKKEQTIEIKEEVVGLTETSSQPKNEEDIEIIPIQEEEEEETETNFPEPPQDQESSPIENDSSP

In the case of rituximab (antibody), the EC50 (read off the curve) (usually the concentration needed to bring the measured effect to its halfway point) was determined as 5 nM.
